Results on eleven molecules are retold here after patent publication US20230129812A1 (ACCELERON PHARMA, published 2023).

For experiment [1], the target named is T1, activin A (UniProt P08476 311-426).
T1 construct: also called ActA
T1 sequence (looked up): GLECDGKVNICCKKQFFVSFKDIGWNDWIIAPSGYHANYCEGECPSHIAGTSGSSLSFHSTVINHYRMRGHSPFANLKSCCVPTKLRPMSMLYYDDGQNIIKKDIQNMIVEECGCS
In words: SPR (Biacore); receptor-Fc captured by anti-Fc antibody, ligand injected. On the procedure:
(§1) A Biacore™-based binding assay was used to compare ligand binding selectivity of the ALK4-Fc:ActRIIB-Fc heterodimeric complex described above with that of ActRIIB-Fc and ALK4-Fc homodimer complexes. The ALK4-Fc:ActRIeB-Fc heterodimer, […], and ALK4-Fc homodimer were independently captured onto the system using an anti-Fc antibody. Ligands were injected and allowed to flow over the captured receptor protein. Results are summarized in Table 13 below, in which ligand off-rates (kd) most indicative of effective polypeptides are denoted in bold.

Experiment [2] concerns the target T2, GDF8 (UniProt O14793 267-375).
T2 construct: also called myostatin
T2 sequence (looked up): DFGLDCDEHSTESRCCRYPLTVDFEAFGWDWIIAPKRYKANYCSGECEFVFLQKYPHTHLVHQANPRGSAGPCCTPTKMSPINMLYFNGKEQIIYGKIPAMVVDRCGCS
The description is as above. The protocol: as §1

Experiment [3] deals with T3, GDF11 (UniProt O95390 299-407).
T3 construct: also called BMP11
T3 sequence (looked up): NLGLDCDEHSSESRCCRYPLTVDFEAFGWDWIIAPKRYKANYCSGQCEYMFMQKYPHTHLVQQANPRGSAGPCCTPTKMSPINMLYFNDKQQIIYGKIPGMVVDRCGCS
Described as above. On the procedure:
as §1

Experiment [4] concerns the target T4, activin B (UniProt P09529 293-407).
T4 sequence (looked up): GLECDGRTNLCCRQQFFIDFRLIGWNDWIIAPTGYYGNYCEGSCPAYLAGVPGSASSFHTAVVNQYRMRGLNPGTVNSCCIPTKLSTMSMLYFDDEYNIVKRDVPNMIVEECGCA
Described as above. The protocol: as §1

Experiment [5] deals with T5, BMP6 (UniProt P22004 375-513, limits assumed).
T5 sequence (looked up): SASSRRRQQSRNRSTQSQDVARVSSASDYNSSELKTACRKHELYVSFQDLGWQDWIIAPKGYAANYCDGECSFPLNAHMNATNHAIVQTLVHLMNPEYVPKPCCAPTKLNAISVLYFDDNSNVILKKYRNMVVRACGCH
The experiment is described as above. On the procedure: as §1

The target in experiment [6] is T6, BMP9 (UniProt Q9UK05 320-429).
T6 construct: also called GDF2
T6 sequence (looked up): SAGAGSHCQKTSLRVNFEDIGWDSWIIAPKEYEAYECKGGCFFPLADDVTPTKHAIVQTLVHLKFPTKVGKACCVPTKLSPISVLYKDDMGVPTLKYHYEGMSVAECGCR
The description is as above. The protocol: as §1

In experiment [7] the target is T7, BMP10 (UniProt O95393 317-424).
T7 sequence (looked up): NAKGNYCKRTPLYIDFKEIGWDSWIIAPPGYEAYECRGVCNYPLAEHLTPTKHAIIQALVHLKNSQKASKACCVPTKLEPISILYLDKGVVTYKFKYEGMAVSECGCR
Described as above. On the procedure:
as §1

The target of experiment [8] is T8, GDF3 (UniProt Q9NR23 251-364).
T8 construct: also called VGR2
T8 sequence (looked up): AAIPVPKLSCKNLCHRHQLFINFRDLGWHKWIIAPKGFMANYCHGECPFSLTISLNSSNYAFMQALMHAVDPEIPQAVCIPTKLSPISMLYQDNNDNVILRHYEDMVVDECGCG
The experiment is described as above. On the procedure: as §1

The target of experiment [9] is T1, activin A. The experiment can be described thus: SPR (Biacore); receptor-Fc captured by anti-hFc antibody, ligand injected. On the procedure: (§2) Binding of certain ActRIIB-Fc proteins and ActRIIB variant Fc fusion polypeptides to ligands was tested in a Biacore™ assay.
(§3) The ActRIIB-Fc variants or wild-type protein were captured onto the system using an anti-hFc antibody. Ligands were injected and flowed over the captured receptor proteins.

Experiment [10] has as its target T2, GDF8. The experiment is described as above. On the procedure: as §2, §3
The target in experiment [11] is T3, GDF11. The description is as above. The protocol: as §2, §3
The target in experiment [12] is T3, GDF11. In words: SPR (Biacore); ligand coupled, receptor flowed over (as reported in WO2006/012627). The source says: (§4) Other variants have been generated and tested, as reported in WO2006/012627 (incorporated herein by reference in its entirety). See, e.g., pp. 59-60, using ligands coupled to the device and flowing receptor over the coupled ligands. […] Table 11 showing data with respect to these variants is reproduced below: […]

Experiment [13] concerns the target T1, activin A. In words: SPR (Biacore); ligand coupled, receptor flowed over (as reported in WO2006/012627); - means ~1/2 WT binding.
Excerpt: as §4

The target of experiment [14] is T1, activin A. In words: SPR (Biacore); ligand coupled, receptor flowed over (as reported in WO2006/012627).
Excerpt: as §4

Experiment [15] addresses T3, GDF11. The experiment can be described thus: SPR (Biacore); ligand coupled, receptor flowed over (as reported in WO2006/012627); -- means <1/5 WT binding.
Excerpt: as §4

Experiment [16] addresses T3, GDF11. The experiment can be described thus: SPR (Biacore); ligand coupled, receptor flowed over (as reported in WO2006/012627); - means ~1/2 WT binding.
Excerpt: as §4

Positions count from the first letter of the chain named. Numbers in names are those of the source. Where only a bound is given, the exact number is not on record here.

B1: ActRIIB-Fc homodimer (Fc fusion)
chain: GRGEAETRECIYYNANWELERTNQSGLERCEGEQDKRLHCYASWRNSSGTIELVKKGCWLDDFNCYDRQECVATEENPQVYFCCCEGNFCNERFTHLPEAGGPEVTYEPPPTAPTGGGTHTCPPCPAPELLGGPSVFLFPPKPKDTLMISRTPEVTCVVVDVSHEDPEVKFNWYVDGVEVHNAKTKPREEQYNSTYRVVSVLTVLHQDWLNGKEYKCKVSNKALPVPIEKTISKAKGQPREPQVYTLPPSREEMTKNQVSLTCLVKGFYPSDIAVEWESNGQPENNYKTTPPVLDSDGSFFLYSKLTVDKSRWQQGNVFSCSVMHEALHNHYTQKSLSLSPGK
notes: also called ActRIIB-Fc:ActRIIB-Fc homodimer
Turning to B1, the equilibrium dissociation constant (Kd) in [1] stood at 0.019 nM; in [2] it was 0.28 nM; in experiment [3], 0.002 nM; in experiment [4], 0.02 nM; in experiment [5], 0.19 nM; in experiment [6], 0.077 nM. Besides, the Kd turned out to be 0.011 nM in experiment [7] and 1.5 nM in [8]. Further, the koff in [1] is 0.00023 s⁻¹; in experiment [2], 0.00023 s⁻¹; in experiment [3] it was 0.00011 s⁻¹; in experiment [4], 0.0001 s⁻¹; in experiment [5], 0.0068 s⁻¹; in [6] it was 0.0011 s⁻¹. In addition, the values for the koff in experiment [7] and in experiment [8] were 0.00026 s⁻¹ and 0.0022 s⁻¹, respectively. For the same molecule, the kon in experiment [1] is 1.2e+07 M⁻¹ s⁻¹; in experiment [2], 830000 M⁻¹ s⁻¹; in [3] it was 5e+07 M⁻¹ s⁻¹; in [4] it was 5.1e+06 M⁻¹ s⁻¹; in experiment [5], 3.2e+07 M⁻¹ s⁻¹; in [6], 1.4e+07 M⁻¹ s⁻¹. The values for the kon in experiment [7] and in experiment [8] were 2.3e+07 M⁻¹ s⁻¹ and 1.4e+06 M⁻¹ s⁻¹, respectively.

B2: ActRIIB(20-134)-hFc (Fc fusion)
chain: B1 chain
notes: also called ActRIIB-hFc
With B2, the Kd worked out at 0.0268 nM in [9], 0.0935 nM in experiment [10] and 0.0842 nM in [11]. Moreover, the koff is 0.000159 s⁻¹ in experiment [9], 3.45e-05 s⁻¹ in experiment [10] and 0.000113 s⁻¹ in [11]. Moreover, the kon was found to be 5.94e+06 M⁻¹ s⁻¹ in [9] and 1.34e+06 M⁻¹ s⁻¹ in experiment [11].

B3: ALK4-Fc:ActRIIB-Fc heterodimer (Fc fusion)
chain 1: B1 chain with V226A, E252K, D295K
chain 2: SGPRGVQALLCACTSCLQANYTCETDGACMVSIFNLDGMEHHVRTCIPKVELVPAGKPFYCLSSEDLRNTHCCYTDYCNRIDLRVPSGHLKEPEHPSMWGPVETGGGTHTCPPCPAPELLGGPSVFLFPPKPKDTLMISRTPEVTCVVVDVSHEDPEVKFNWYVDGVEVHNAKTKPREEQYNSTYRVVSVLTVLHQDWLNGKEYKCKVSNKALPAPIEKTISKAKGQPREPQVYTLPPSREEMTKNQVSLTCLVKGFYPSDIAVEWESNGQPENNYDTTPPVLDSDGSFFLYSDLTVDKSRWQQGNVFSCSVMHEALHNHYTQKSLSLSPG
notes: The receptor parts are the same in all three; also called ALK4-Fc:ActRIIB-Fc heterodimeric complex; ALK4:ActRIIB heterodimer
For the molecule B3, the Kd is 0.012 nM in experiment [1]; 0.55 nM in experiment [2]; 0.003 nM in experiment [3]; 0.006 nM in [4]; 2.7 nM in [5]; 3.4 nM in experiment [6]. The results for the Kd in experiment [7] and in [8] were 0.074 nM and 4.9 nM, respectively. The koff in experiment [1] worked out at 0.00015 s⁻¹; in experiment [2] it was 0.00021 s⁻¹; in [3], 0.00011 s⁻¹; in experiment [4], 4e-05 s⁻¹; in [5], 0.0055 s⁻¹; in experiment [7], 0.0041 s⁻¹. The molecule also displayed a koff in experiment [8] of 0.017 s⁻¹. Moreover, the kon in experiment [1] came out at 1.3e+07 M⁻¹ s⁻¹; in experiment [2] it was 390000 M⁻¹ s⁻¹; in experiment [3], 3.8e+07 M⁻¹ s⁻¹; in experiment [4], 7.1e+06 M⁻¹ s⁻¹; in [5], 2e+06 M⁻¹ s⁻¹; in [7] it was 5.6e+07 M⁻¹ s⁻¹. Also, in experiment [8], the kon turned out to be 3.4e+06 M⁻¹ s⁻¹.

B4: ActRIIB(L79E 20-134)-hFc (Fc fusion)
chain: B1 chain with L60E
For B4, the Kd in experiment [10] came out at 2.41 nM; in [11], 0.716 nM. For the same molecule, the koff was determined as 0.0009 s⁻¹ in experiment [10] and 0.000274 s⁻¹ in experiment [11].

B5: ActRIIB(R64K 20-134)-hFc (Fc fusion)
chain: B1 chain with R45K
Consider B5, for which, in experiment [9], binding was put at a Kd of 0.0476 nM, the koff worked out at 0.000325 s⁻¹ and the kon amounted to 6.82e+06 M⁻¹ s⁻¹. In [10], this molecule came in with a Kd of 0.21 nM and a koff of 4.71e-05 s⁻¹. In [11], the Kd turned out to be 0.0356 nM and the koff was determined as 2.41e-05 s⁻¹.

B6: Soluble ActRIIB-Fc D54A (Table 11) (Fc fusion, UniProt Q13705 19-119, looked up, not shown: a dimerising Fc or GST)
chain: SGRGEAETRECIYYNANWELERTNQSGLERCEGEQAKRLHCYASWANSSGTIELVKKGCWLDDFNCYDRQECVATEENPQVYFCCCEGNFCNERFTHLPEA
For B6, the binding result in experiment [12] is “no binding”; in experiment [13] it was “binds”.

B7: Soluble ActRIIB-Fc K74F (Table 11) (Fc fusion, UniProt Q13705 19-119, looked up, not shown: a dimerising Fc or GST)
chain: B6 chain with A36D, K56F
B7: the binding result in experiment [14] is on record as “no binding”. Further, the “binding relative to WT” value in experiment [15] was less than 0.2 fold.

B8: Soluble ActRIIB-Fc F82A (Table 11) (Fc fusion, UniProt Q13705 19-119, looked up, not shown: a dimerising Fc or GST)
chain: B6 chain with A36D, F64A
On to B8, for which the binding result in [16] is reported as “binds”.

B9: Soluble ActRIIB-Fc K74Y (Table 11) (Fc fusion, UniProt Q13705 19-119, looked up, not shown: a dimerising Fc or GST)
chain: B6 chain with A36D, K56Y
For the molecule B9, the binding result in experiment [14] is “no binding”. Also, the “binding relative to WT” value in experiment [15] is less than 0.2 fold.

B10: Soluble ActRIIB-Fc K74I (Table 11) (Fc fusion, UniProt Q13705 19-119, looked up, not shown: a dimerising Fc or GST)
chain: B6 chain with A36D, K56I
As for B10, the binding result in experiment [14] was “no binding”. Besides, the “binding relative to WT” value in experiment [15] was less than 0.2 fold.

B11: Soluble ActRIIB-Fc D80I (Table 11) (Fc fusion, UniProt Q13705 19-119, looked up, not shown: a dimerising Fc or GST)
chain: B6 chain with A36D, D62I
B11: the binding result in experiment [14] was “no binding”. In addition, the “binding relative to WT” value in [15] is less than 0.2 fold.
